According to patent publication US20210253725A1 (BIONTECH, published 2021):

T1: CD134 expressed on the cell surface of HT1080_OX40 cells (human, UniProt P43489 29-277)
T1 construct: whole, on cells; species not restated for the HT1080 transfectant
T1 sequence (looked up): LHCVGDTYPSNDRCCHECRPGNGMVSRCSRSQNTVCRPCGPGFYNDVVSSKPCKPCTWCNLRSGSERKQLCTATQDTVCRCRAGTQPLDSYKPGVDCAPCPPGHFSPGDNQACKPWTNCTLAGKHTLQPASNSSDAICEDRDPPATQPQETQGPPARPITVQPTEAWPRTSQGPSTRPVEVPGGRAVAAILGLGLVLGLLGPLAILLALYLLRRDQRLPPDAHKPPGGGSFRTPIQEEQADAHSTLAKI

T2: CD134 protein (His-tagged, Sino Biological Inc. 10481-H08H) (human, UniProt P43489 29-216)
T2 construct: bought protein coated on ELISA plates; also called OX40; TNFRSF4; not shown: His tag
T2 sequence (looked up): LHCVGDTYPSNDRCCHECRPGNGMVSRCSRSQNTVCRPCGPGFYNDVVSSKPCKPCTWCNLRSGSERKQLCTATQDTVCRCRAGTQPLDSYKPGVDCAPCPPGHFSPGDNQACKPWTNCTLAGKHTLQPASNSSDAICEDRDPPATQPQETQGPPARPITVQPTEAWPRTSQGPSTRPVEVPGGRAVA


Legend:
[1] = biological target: T1, CD134 expressed on the cell surface of …; assay: HT1080_OX40 cells, imaging
[2] = biological target: T2, CD134 protein (His-tagged, Sino …); assay: ELISA, coated His-tagged CD134
[3] = biological target: T1, CD134 expressed on the cell surface of …; assay: cell-based or functional assay
Also: test concentration or dose not given here.

Cellular binding assay [RFU] [1] | ELISA [abs. corr.] [2] | Functional assay Cross-linked by F(ab′)2 fragment IL-8 [3] | Functional assay IL-8 [3] | Binder
478 RFU | 1.69 abs. corr. | 2.01 abs. corr. | 1.21 abs. corr. | P018.S.11.A.H05 (antibody, V domains shown, V regions on human Ig constant parts; also called AB134_48) VH: QQRLVESGGGLVKPGASLTLTCTASGFSFSSGYDMCWVRQAPGKGLEWVGCIDTATDTIYYASWAPGRFTISKTSSTMVTLQMTSLTAADTATYFCARSVGGVDYAIDLWGPGTLVTVSS VL: AYDMTQTPVSVEVPVGGTVTIKCQASQNIGSRLVWYQQKPGQSPKFLIYYASNLASGVSSRFKGSGSGTQFTLTISDVQSDNAATYYCQQTYSYSDVDDTFGGGTEVVVK
559 RFU | 1.34 abs. corr. | 1.83 abs. corr. | 0.707 abs. corr. | P018.S.12.A.D03 (antibody, V domains shown, V regions on human Ig constant parts; also called AB134_68) VH: QERLVESGGGLVKPGASLTLTCTASGFSFSSGYDMCWVRQAPGKGLEWVGCIDTGTGTIYYASWAPGRFTISETSSTMVTLQMTSLTAADTATYFCARSVGGYDYAIDLWGPGTLVTVSS VL: AYDMTQTPASVEVPVGGTVTIKCQASQNIGSRLVWYQQKPGQSPKFLIYYASNLASGVSSRFKGSGSGTQFTLTISDVQSDNAATYYCQQTYSYSDVDDTFGGGTEVVVK
560 RFU | 2.21 abs. corr. | 1.97 abs. corr. | -0.167 abs. corr. | P018.S.12.A.B02 (antibody, V domains shown, V regions on human Ig constant parts; also called AB134_57) VH: QSLEESGGRLVTPGTPLTLTCTVSGIDLSKYTMTWVRQAPGKGLEWIGLISFGGRGGTWYANWAKGRFTISKTSTTVDLRIASPTTEDTATYFCARARYSGTNYDYFNLWGQGTLVTVSS VL: AYDMTQTPASVEVAVGGTVTIKCQASQSISNWLAWYQQKPGQRPKLLIYGASNLESGVPSRFKGSGSGTDFTLTISDLESADAATYYCQQGYSSDGVTNAFGGGTEVVVE
525 RFU | 2.65 abs. corr. | 2.04 abs. corr. | 0.214 abs. corr. | P018.S.11.A.E02 (antibody, V domains shown, V regions on human Ig constant parts; also called AB134_33) VH: QEQLEESGGDLVKPEGSLTLTCTASGFSFNVDYYMCWVRQAPGKGLEWIACIYVGSEGSTYYASWAKGRFTISKTSSTTVTLQMTSLTAADTATYFCARHYAGYAGYNYATDYYFTLWGPGTLVTVSS VL: DIVMTQTPSSVSAGVGGTVTINCQASQSVTNFLSWYQQKPGQPPKLLIYGASTLASGVPSRFKGSGSGTEFTLTISGMKAEDVATYYCQSGYYSATFGAGTKVEIK
482 RFU | 2.04 abs. corr. | 2 abs. corr. | 0.461 abs. corr. | P018.S.12.A.E03 (antibody, V domains shown, V regions on human Ig constant parts; also called AB134_74) VH: QSVEESGGRLVTPGTPLTLTCTVAGIDLNICGMSWVRQAPGKGLEWIGIIYPSDYTYYATWAKGRFTISKTSTTVDLKITSPTTEDTATYFCARGLGHAWSHFDLWGQGTLVTVSS VL: AFELTQTPASVSEPVGGTVTIKCQASQSIGSDLAWYQQKPGQPPKLLIYSVSNLPSGVSSRFKGSRSGTEYTLTISDLESADAATYYCQSYYGTITTGYIAFGGGTEVVVK
458 RFU | 2.5 abs. corr. | 2 abs. corr. | 0.538 abs. corr. | P018.S.04.A.C06 (antibody, V domains shown, V regions on human Ig constant parts; also called AB134_8) VH: QSVEESGGRLVTPGTPQTLTCTVSGFSLSSYAMSWVRQAPGKGLEWIGIISSSGSTYYASWAKGRFTISKTSTTVDLKITSPTTEDTATYFCARDAYPSYSPFGYYFTLWGQGTLVTVSS VL: AIKMTQTPASVSAAVGGTVSINCQASEDIYNYLAWYQQKPGQPPKLLIYDASDLASGVPSRFKGSGSGKQFTLTISGVQSDDAATYYCQHGYFTYSGENAFGGGTEVVVK
582 RFU | 2.1 abs. corr. | 1.99 abs. corr. | 0.533 abs. corr. | P018.S.11.A.A04 (antibody, V domains shown, V regions on human Ig constant parts; also called AB134_21) VH: QSVEESGGRLVTPGTPLTLTCTVSGFSLSSYAMGWVRQAPGKGLEYIGVISTSANTYYATWAKGRFTISKTSTTVDLRITSPTTEDTATYFCARVVGLYDSYGDVDATYDAFDPWGPGTLVTVSS VL: AQVLTQTASPVSAAVGDTVTINCQSSQSVYNNNLLSWYQQKPGQPPKLLVYDASNLASGVPHRFSGSGSGTQFTLTISGVQSDDAATYYCLGGYDDDADIYAFGGGTEVVVK
515 RFU | 1.61 abs. corr. | 2.04 abs. corr. | 0.062 abs. corr. | P018.S.12.A.A06 (antibody, V domains shown, V regions on human Ig constant parts; also called AB134_55) VH: QSVEESGGRLVTPGTPLTLTCTVSGFSLSSFAMTWVRQAPGKGLEWIGIISSSGTTYYASWAKGRFTISKTSTTVDLRITSPTTEDTATYFCASHYDDYGDSDALDPWGPGTLVTVSS VL: AAVMTQTPSPVSAAVGGTVTINCQASEDIYSNLAWFQQKPGQPPKLLIYRASTLASGVPSRFSGSGSGTEFTLTISGLQSDDAATYYCLGVDRHISDRAFGGGTEVVVK
459 RFU | 1.93 abs. corr. | 2.01 abs. corr. | 1.38 abs. corr. | P018.S.11.A.A03 (antibody, V domains shown, V regions on human Ig constant parts; also called AB134_20) VH: QSLEESGGDLVKPGASLTLPCTASGFTLSGYWMCWVRQAPGKGLEWIGCIYNGDGSTYYASWAKGRFTISKTSSTTVTLQMTSLTAADTATYFCARDSNGWGAYGLWGPGTLVTVSS VL: AIEMTQTPSSVSAAVGGTVTIDCQASQSIGSYLSWYQQKPGQPPKLLIYDASDLASGVPSRFSGSGSGTEFTLTISGVQSDDAATYYCQGGYYSSATEIAFGGGTEVVVK
130 RFU | 0.744 abs. corr. | 1.97 abs. corr. | 0.019 abs. corr. | P018.S.11.A.D06 (antibody, V domains shown, V regions on human Ig constant parts; also called AB134_32) VH: QSLEESGGRLVKPGESLTLTCTVSEFSLSSNAMGWVRQAPGKGLEFIGLIDSGGDAYYATWAKGRFTISKTSSTTVDLKATSLTTEDTATYFCGRGYWFPRLGLWGQGTLVTVSS VL: AAVLTQTPSPVSAAVGGTVSINCQSTKNVYLNNWLGWFQKKPGQPPKLLIYDASTLASGVPSRFKGSGSGTEFTLTISDLESDDAATYYCAGAYDDNSDHTFGGGTEVVVK
549 RFU | 2.07 abs. corr. | 1.99 abs. corr. | 0.185 abs. corr. | P018.S.12.A.F02 (antibody, V domains shown, V regions on human Ig constant parts; also called AB134_78) VH: QSLEESGGRLVTPGTPLTLTCTASGFSLIKSHINWVRQAPGKGLEWVGGIAYDDNTYYANWAKGRFTISKTSTTVDLRITSPTTADTATYFCAREDSSGWGSFNLWGQGTLVTVSS VL: AQVLTQTPSSVSAAVGGTVTISCQSSQSVYATNQLSWFQQKSGQPPKRLIYSASTLASGVSSRFKGSGSGTQFTLTISGVQSDDAATYYCQGAYDCSGGDCRAFGGGTEVVVK
531 RFU | 2.36 abs. corr. | 2.05 abs. corr. | 0.031 abs. corr. | P018.S.11.A.G05 (antibody, V domains shown, V regions on human Ig constant parts; also called AB134_45) VH: QSLEESGGDLVKPGASLTLTCAASGFSLNNWVMCWVRQAPGKGLEWIACIDIVGSGSTHYATWAKGRFTMSKASSITVTLQMTSLTAADTATYFCARGVNGDGNLNLWGPGTLVTVSS VL: DVVMTQTPASVSEPVGGAVTIKCQASETISNYLAWYQQKPGQRPKLLIYGASNLESGVPSRFKGSGSGTEFTLTISDLESADAATYYCQCTYVGDSYTAFGGGTEVVVK
500 RFU | 1.65 abs. corr. | 2.05 abs. corr. | 0.374 abs. corr. | P018.S.12.A.F06 (antibody, V domains shown, V regions on human Ig constant parts; also called AB134_82) VH: QSLEESGGDLVKPGGTLTLTCKASGIDFNNYYVCWVRQAPGKGLEWVGCIYTGSGSTYYASWAKGRFTITRSSSTTVTLQMTSLTAADTATYFCARPEFYDTYGYAGYGYATPNYFNFWGPGTLVTVSS VL: AAVLTQTPSPVSAAVGGTVTIKCQASQSVYNNNLLSWYQQKPGQPPKLLMYDASNLASGVPDRFSGSGSGTQFTLTISDLESDDAATYYCLGGYDDDADYNAFGGGTEVVVA
498 RFU | 2.52 abs. corr. | 1.95 abs. corr. | 0.567 abs. corr. | P018.S.11.A.H06 (antibody, V domains shown, V regions on human Ig constant parts; also called AB134_49) VH: QSLEESGGRLVTPGTPLTLTCTVSGFSLSTYAMIWVRQAPGEGPEWIGLIAGGGNTWYASWAKGRFTISKTSTTVDLKITSPTTEDTATYFCARADYLGYGNNFWGQGTLVTVSS VL: AAVLTQTPSPVSAAVGGTVTINCQASQSVYNNNYLAWYQQKPGQPPKLLIYWASNLASGVPSRFSGSGSGTQFSLTISGVQSDDAATYYCLGVYDDDADNGFGGGTEVVVK
463 RFU | 2.55 abs. corr. | 2.04 abs. corr. | 0.439 abs. corr. | P018.S.12.A.E01 (antibody, V domains shown, V regions on human Ig constant parts; also called AB134_72) VH: QSVEESGGRLVTPGGSLTLTCTVSGIDLSSADMSWVRQAPGEGLEYIGWINNVGSAYYASWAKGRFSISKTSSTTVDLKVTSLTTEDTATYFCVRGYWLDLWGQGTLVTVSS VL: AAVLTQTPSPVSAAVGGTVSISCQSSVNVYNNNYLAWFQQKPGQPPKLLIYAASTLPSGVSSRFSGNGSGTEFTLTISGVQSDDAATYYCVGYYSSTDDNGFGGGTEVVVK
